Test results published in publication PMC9823007.

Target: NyxA (for SEC-MALS and SAXS) (Brucella abortus 2308) (UniProt Q2YPD9)
Test: SEC-MALS

For “NyxA (for SEC-MALS and SAXS) (from UniProt Q2YPD9 1-129) (natural protein)”, the stoichiometry N was 2.
